Earlier results on one substance are cited in publication PMC5430804, “Structural and biochemical insights of CypA and AIF interaction” (Scientific Reports, 2017).

By Kd is commonly meant the constant that tells how readily two partners part at equilibrium.

This data set has as its target AIF(Δ1-121) Δ1-121 (Homo sapiens) (UniProt O95831).

Sequence of CypA (P62937 2-165): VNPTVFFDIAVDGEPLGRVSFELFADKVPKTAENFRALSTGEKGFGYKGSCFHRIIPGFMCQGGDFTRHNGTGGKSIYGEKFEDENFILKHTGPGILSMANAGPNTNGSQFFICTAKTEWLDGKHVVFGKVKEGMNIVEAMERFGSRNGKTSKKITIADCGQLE
Sequence of AIF(Δ1-121) Δ1-121 (Homo sapiens) (O95831 1-121, stated change not applied): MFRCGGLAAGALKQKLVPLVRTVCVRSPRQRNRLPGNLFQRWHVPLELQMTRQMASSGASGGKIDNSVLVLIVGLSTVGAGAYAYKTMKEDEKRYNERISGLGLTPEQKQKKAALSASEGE

As for CypA (from UniProt P62937), the Kd was 900 nM.
